Data taken from patent US20220281936.

Legend:
Mouse IL12 (unmodified) = target: T1, Mouse IL12 (unmodified)
T1 chain 1: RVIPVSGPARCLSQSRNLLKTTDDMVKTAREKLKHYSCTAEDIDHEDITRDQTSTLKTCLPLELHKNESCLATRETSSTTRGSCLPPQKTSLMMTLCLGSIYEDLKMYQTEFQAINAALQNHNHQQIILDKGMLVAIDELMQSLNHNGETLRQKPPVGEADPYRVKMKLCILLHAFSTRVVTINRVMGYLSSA
T1 chain 2: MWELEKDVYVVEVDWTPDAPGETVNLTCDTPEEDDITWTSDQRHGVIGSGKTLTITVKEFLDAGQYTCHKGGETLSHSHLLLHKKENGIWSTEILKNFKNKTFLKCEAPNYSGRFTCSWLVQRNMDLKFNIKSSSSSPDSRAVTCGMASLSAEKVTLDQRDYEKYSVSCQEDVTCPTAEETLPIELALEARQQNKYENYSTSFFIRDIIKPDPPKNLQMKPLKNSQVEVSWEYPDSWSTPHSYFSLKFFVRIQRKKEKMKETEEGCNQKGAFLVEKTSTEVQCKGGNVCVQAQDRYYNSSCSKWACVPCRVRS

B1: Recombinant mouse MMP9 (protein)
chain: FQTFKGLKWDHHNITYWIQNYSEDLPRDMIDDAFARAFAVWGEVAPLTFTRVYGPEADIVIQFGVAEHGDGYPFDGKDGLLAHAFPPGAGVQGDAHFDDDELWSLGKGVVIPTYYGNSNGAPCHFPFTFEGRSYSACTTDGRNDGTPWCSTTADYDKDGKFGFCPSERLYTEHGNGEGKPCVFPFIFEGRSYSACTTKGRSDGYRWCATTANYDQDKLYGFCPTRVDATVVGGNSAGELCVFPFVFLGKQYSSCTSDGRRDGRLWCATTSNFDTDKKWGFCPDQGYSLFLVAAHEFGHALGLDHSSVPEALMYPLYSYLEGFPLNKDDIDGIQYLYGRGSKPDPRPPATTTTEPQPTAPPTMCPTIPPTAYPTVGPTVGPTGAPSPGPTSSPSPGPTGAPSPGPTAPPTAGSSEASTESLSPADNPCNVDVFDAIAEIQGALHFFKDGWYWKFLNHRGSPLQGPFLTARTWPALPATLDSAFEDPQTKRVFFFSGRQMWVYTGKTVLGPRSLDKLGLGPEVTHVSGLLPRRLGKALLFSKGRVWRFDLKSQKVDPQSVIRVDKEFSGVPWNSHDIFQYQDKAYFCHGKFFWRVSFQNEVNKVDHEVNQVDDVGYVTYDLLQCP
proteolytic cleavage, SDS-PAGE (30 min, 37 C) (IL12Rβ1-VP-IL12): MMP2 and MMP9 fully cleaved the IL12Rβ1 portion, yielding IL12 heterodimer (-60 kDa)
proteolytic cleavage, SDS-PAGE (Mouse IL12 (unmodified)): These enzymes had no effect on IL12 itself
